One data set has as its system new vessel growth. To be noted: rats, given systemically; cited from earlier work.
Data set [1] relates to primary rat retinal pigment epithelial cells (RPEs). To be noted: cited from earlier work.
Data set [2] in a line: Stability testing of peptide variants (scored). It counts as physicochemical. An excerpt:
Stability, Miles Assay activity and corneal angiogenesis activities of a number of the peptides were investigated, and scored.

In data set [3] the test system is VEGF-induced vascular permeability. Kind of data set: Miles assay (Evans Blue dye extravasation after intradermal VEGF with PKC modulator). It counts as in vivo. To be noted: increasing VEGF doses. As to the method: In this study animals were injected intravenously with Evans Blue Dye. Animals were administered VEGF in increasing doses with a PKC modulator intradermally. […] The spots were removed, the dye extracted and quantities were measured spectrophotometrically.
A parent compound, βIV5-3 (SEQ ID NO:6) and a peptide variant—a linear version of the peptide, linear βI, having the sequence […] (SEQ ID NO:18)—were tested in the Miles assay.
The Miles assay was similarly performed with a βIPKC (βIV5-3 (SEQ ID NO:6)) inhibitor, a βIIPKC (βIIV5-3 (SEQ ID NO:8)) inhibitor, a classical ((β-, α-, γPKC) PKC inhibitor (βC2-4 (SEQ ID NO:10), and the scrambled control 1 peptide from Example 2 (SEQ ID NO:12) conjugated to TAT (SEQ ID NO:5).

A short description of data set [4]: Topical distribution of radiolabeled TAT peptide after instillation to rabbit eyes. It counts as in vivo. To be noted: rabbit eye. How it is done: Radiolabeled TAT peptide [^14C]-YGXaaRKKRRQRRR (SEQ ID NO:19) (10 μCi) was applied in 5 instillations to each eye (50 μCi total—4 rabbits, 2 eyes each, n=8 eyes, 3 mg total applied to each eye). Each application was 1 hour apart, animals sacrificed 15 minutes after last application. Tissue samples were taken and assayed to determine topical distribution.

As to `Cn1cc(C2=C(c3cn(C4CCN(Cc5ccccn5)CC4)c4ccccc34)C(=O)NC2=O)c2ccccc21` [LY317615], the new vessel growth entry in the data set with new vessel growth is “prevent new vessel growth”.
For the molecule `CCCCCCCCCCCCCC(=O)O[C@@H]1[C@@H](C)[C@@]2(O)[C@@H](C=C(CO)C[C@]3(O)C(=O)C(C)=C[C@@H]23)[C@@H]2C(C)(C)[C@]12OC(C)=O` [PMA], the “PKC-delta level in RPEs” value in data set [1] (exposure for 24 hours) is listed as “significantly down regulated”. Besides, in data set [1] (normal or high glucose, or hypoxia, treatment for 24 hours), the “Secretion of VEGF” value is given as “significantly reduced”.
Turning to “GEEVIRNISGYGRKKRRQRRR [bII linear analog]”, the Stability testing result in data set [2] is on record as “+++”.
Consider GKLFIMNADGYGRKKRRQRRR [Linear bI (4)], for which, in data set [2], the Stability testing result was “++”.
The same measure, in the same setting: to GKLFIMNAGGYGRKKRRQRRR [Linear bI (6)] belongs “++”.
“GKLFIMNGGYGRKKRRQRRR (GKLFIMNLSGYGRKKRRQRRR) [linear bI, a linear version of the peptide βIV5-3]”: the “VEGF-induced vascular permeability in comparison to vehicle alone” value in data set [3] is listed as “reduced vascular permeability”.
As to GKLFIMNLDGYGRKKRRQRRR [Linear bI (3)], the Stability testing result in data set [2] is on record as “++”.
In the case of GKLFIMNLGYGRKKRRQRRR [Linear bI (5)], in data set [2], the Stability testing result was “+++”.
Consider “GKLFIMNLSGYGRKKRRQRRR (GKLFIMNAGGYGRKKRRQRRR) [bI linear analog]”, for which the Stability testing result in data set [2] is “++”.
As for GQEVIRNGGYGRKKRRQRRR [linear bII], the Stability testing entry in data set [2] was “−”.
For the molecule GSLNPEWNETGGYGRKKRRQRRR [linear bC2-4], in data set [2], the Stability testing result is on record as “+++”.
Turning to “[^14C]-YGXaaRKKRRQRRR [Radiolabeled TAT peptide]”, the “Topical distribution, Sclera” value in data set [4] (5 instillations 1 hour apart, 3 mg total per eye, 15 minutes after last application) was determined as 28.4 μ/g tissue. In addition, in data set [4] (topical), the “Choroid, applied total dose” value is 0.003%; the “Retina, applied total dose” value turned out to be 0.001%; the “Sclera, applied total dose” value is reported as 0.134%; the “Vitreous, applied total dose” value stood at 0.006%.

The record behind these values is patent US20110098224A1, “PROTEIN KINASE C PEPTIDE MODULATORS OF ANGIOGENESIS” (priority 2005, published 2011).
